Literature values, collected in patent publication US10487153B2, “Carbonic anhydrase IX-specific antibodies and uses thereof” (National Research Council of Canada, priority 2015, dated 2019).

Molecular target: T1, CA-IX (Homo sapiens, UniProt Q16790)
T1 construct: host or cells: patients' own tumour tissue (endogenous)
Settings: >6-year span; compared to a placebo; cited from earlier work

cG250: chimeric version of anti-CA-IX mAb G250, developed as a therapeutic antibody
disease-free survival rate of patients: not improve the disease-free survival rate
